T1: biotinylated N-terminal domain CCR2 peptide (murine, biotinylated (position not given))
T1 construct: Bought from ABclonal; also called CCR2 N-terminal domain; CCR2 N-terminus
T1 peptide: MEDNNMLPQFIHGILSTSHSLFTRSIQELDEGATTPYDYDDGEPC

T2: ECL2 domain of the CCR2 chemokine receptor
T2 construct: also called CCR2 ECL2; 2nd extracellular loop of CCR2
T2 peptide: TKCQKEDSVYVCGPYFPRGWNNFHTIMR

B1: phage clone 13F (scFv)
scFv: LQAVLTQPSSLSASPGASASLTCILRSDFSVVTQRVYWYQQKPGSPPRYLLRYNSDSDKRLGSGVPSRFSGSKDVSANAASLLISGLQSDDEADYYCVIWHNSAVVFGGGTKLTVLGEGKSSGSGSESKASEVQLLESGAEVKKPGESLKISCKGSGYSFTSYWIGWVRQMPGKGLEWMGIIYPGDSDTRYSPSFQGQVTISADKSISTAYLQWSSLKASDTAMYYCARRPQYYDILTGWHAGWFDPWGQGTLVTVSS
notes: also called 13F-scFv
B2: ECL2-scFv (scFv)
scFv: DYKDDDDKLQSVLTQPPSASGTPGQRVTISCSGSSSNIGSHTVNWYQQLPGTAPKLLIYRNNQRPSGVPDRFSGSKSGTSASLAISGLRSEDEADYYCAAWDDSLSGVVFGGGTKLTVLGEGKSSGSGSESKASQVTLKESGAEVKKPGASVKVSCKASGYTFTNFYIHWVRRAPGQGLEWMGIINPSDGRTTYAQKFQGRVTMTRDTSTSTLYMELTSLRSEDTAVYYCGRGGHYSNYFGQPSTWGQGTLVTVSSVEAS
notes: the construct as expressed is not described; also called 4h-scFv
B3: phage clone 26B (scFv)
scFv: LQSVLTQPPSASGTPGQRVTISCSGSSSNIGSNYVYWYQQLPGTAPKLLIYRNNQRPSGVPDRFSGSKSGTSASLAISGLQSEDEADYYCAAWDDSLNGVVFGGGTELTVLGEGKSSGSGSESKASQVTLKESGAEVKKPGASVKVSCKASGYTFTNFYIHWVRRAPGQGLEWMGIINPSDGRTTYAQKFQGRVTMTRDTSTSTLYMELTSLRSEDTAVYYCGRGGHYSNYFGQPSTWGQGTLVTVSS
notes: also called 26B-scFv
B4: phage clone 25B (scFv)
scFv: LQSVLTQPPSVSGAPGQKVTISCSGSSSNIGNNYVSWYQQLPGTAPKLLIYGNNKRPSGIPDRFSGSKSGTSATLGITGLQTGDEADYYCATWDDSLSAVVFGGGTKLTVLGEGKSSGSGSESKASQVTLKESGAEVKKPGASVKVSCKASGYTFTNFYIHWVRRAPGQGLEWMGIINPSDGRTTYAQKFQGRVTMTRDTSTSTLYMELTSLRSEDTAVYYCGRGGHYSNYFGQPSTWGQGTLVTVSS
notes: also called 25B-scFv

How the values were obtained:
[1] = target: T1, biotinylated N-terminal domain CCR2 …; test: phage ELISA on the N-terminal peptide
Method: Nunc MaxiSorp 96-well plates were coated with NeutrAvidin at 5 μg/mL and incubated overnight at 4° C. The plate was thoroughly washed with 0.1% PBS-Tween (PBST), and 5 μg/mL biotinylated N-terminal domain CCR2 peptide ([…] (SEQ ID NO:58); ABclonal, Woburn, Mass.) added and incubated for 1 h at room temperature. The wells were washed with 0.1% PBST and then blocked with casein blocking buffer for 1 h at room temperature. The wells were washed with 0.1% PBST followed by incubation of serially diluted scFv for 1 h at room temperature before being washed five times with 0.1% PBST. Washes were followed by the addition of 100 uL of the respective horse-radish peroxidase (HRP)-linked monoclonal antibody (mAb) for 1 h at room temperature with rocking. An anti-M13 mAb was used to detect phages (#27-9421-01, GE healthcare, Chicago, Ill.) and an anti-flag mAb was used to detect scFv (#A8592, Sigma Aldrich, St. Louis, Mo.). The wells were washed with 0.1% PBST followed by the addition of TMB-ELISA substrate. After 10 min incubation, 2 M H₂SO₄ was added to stop the reaction. The absorbance was measured at 450 nm with a FilterMax F3 & F5 multi-mode microplate reader (Molecular Devices, Sunnyvale, Calif.). A 1:1 binding ratio Hill model was used to fit the binding interaction data.

[2] = target: T2, ECL2 domain of the CCR2 chemokine …; test: binding assay of FIG. 16A,B on the ECL2 domain (method not given)

Binder | binding result [1] | Kd [2]
B1 | binds | 
B2 |  | 5.3 nM
B3 | binds | 
B4 | binds | 
